The experiment addresses 6xHis-Zasp52-PK-FLAG (Drosophila melanogaster). The experiment is described as follows: cross-linking; purified 6xHis-Zasp52-PK-FLAG incubated with EGS or alone; SDS-PAGE and anti-Flag western blot. A general note: In western blotting, separated proteins are transferred to a membrane and probed.

In general, stoichiometry N refers to a count of units in the complex or per binding partner.

Chain of 6xHis-Zasp52-PK-FLAG (A1ZA47 whole entry): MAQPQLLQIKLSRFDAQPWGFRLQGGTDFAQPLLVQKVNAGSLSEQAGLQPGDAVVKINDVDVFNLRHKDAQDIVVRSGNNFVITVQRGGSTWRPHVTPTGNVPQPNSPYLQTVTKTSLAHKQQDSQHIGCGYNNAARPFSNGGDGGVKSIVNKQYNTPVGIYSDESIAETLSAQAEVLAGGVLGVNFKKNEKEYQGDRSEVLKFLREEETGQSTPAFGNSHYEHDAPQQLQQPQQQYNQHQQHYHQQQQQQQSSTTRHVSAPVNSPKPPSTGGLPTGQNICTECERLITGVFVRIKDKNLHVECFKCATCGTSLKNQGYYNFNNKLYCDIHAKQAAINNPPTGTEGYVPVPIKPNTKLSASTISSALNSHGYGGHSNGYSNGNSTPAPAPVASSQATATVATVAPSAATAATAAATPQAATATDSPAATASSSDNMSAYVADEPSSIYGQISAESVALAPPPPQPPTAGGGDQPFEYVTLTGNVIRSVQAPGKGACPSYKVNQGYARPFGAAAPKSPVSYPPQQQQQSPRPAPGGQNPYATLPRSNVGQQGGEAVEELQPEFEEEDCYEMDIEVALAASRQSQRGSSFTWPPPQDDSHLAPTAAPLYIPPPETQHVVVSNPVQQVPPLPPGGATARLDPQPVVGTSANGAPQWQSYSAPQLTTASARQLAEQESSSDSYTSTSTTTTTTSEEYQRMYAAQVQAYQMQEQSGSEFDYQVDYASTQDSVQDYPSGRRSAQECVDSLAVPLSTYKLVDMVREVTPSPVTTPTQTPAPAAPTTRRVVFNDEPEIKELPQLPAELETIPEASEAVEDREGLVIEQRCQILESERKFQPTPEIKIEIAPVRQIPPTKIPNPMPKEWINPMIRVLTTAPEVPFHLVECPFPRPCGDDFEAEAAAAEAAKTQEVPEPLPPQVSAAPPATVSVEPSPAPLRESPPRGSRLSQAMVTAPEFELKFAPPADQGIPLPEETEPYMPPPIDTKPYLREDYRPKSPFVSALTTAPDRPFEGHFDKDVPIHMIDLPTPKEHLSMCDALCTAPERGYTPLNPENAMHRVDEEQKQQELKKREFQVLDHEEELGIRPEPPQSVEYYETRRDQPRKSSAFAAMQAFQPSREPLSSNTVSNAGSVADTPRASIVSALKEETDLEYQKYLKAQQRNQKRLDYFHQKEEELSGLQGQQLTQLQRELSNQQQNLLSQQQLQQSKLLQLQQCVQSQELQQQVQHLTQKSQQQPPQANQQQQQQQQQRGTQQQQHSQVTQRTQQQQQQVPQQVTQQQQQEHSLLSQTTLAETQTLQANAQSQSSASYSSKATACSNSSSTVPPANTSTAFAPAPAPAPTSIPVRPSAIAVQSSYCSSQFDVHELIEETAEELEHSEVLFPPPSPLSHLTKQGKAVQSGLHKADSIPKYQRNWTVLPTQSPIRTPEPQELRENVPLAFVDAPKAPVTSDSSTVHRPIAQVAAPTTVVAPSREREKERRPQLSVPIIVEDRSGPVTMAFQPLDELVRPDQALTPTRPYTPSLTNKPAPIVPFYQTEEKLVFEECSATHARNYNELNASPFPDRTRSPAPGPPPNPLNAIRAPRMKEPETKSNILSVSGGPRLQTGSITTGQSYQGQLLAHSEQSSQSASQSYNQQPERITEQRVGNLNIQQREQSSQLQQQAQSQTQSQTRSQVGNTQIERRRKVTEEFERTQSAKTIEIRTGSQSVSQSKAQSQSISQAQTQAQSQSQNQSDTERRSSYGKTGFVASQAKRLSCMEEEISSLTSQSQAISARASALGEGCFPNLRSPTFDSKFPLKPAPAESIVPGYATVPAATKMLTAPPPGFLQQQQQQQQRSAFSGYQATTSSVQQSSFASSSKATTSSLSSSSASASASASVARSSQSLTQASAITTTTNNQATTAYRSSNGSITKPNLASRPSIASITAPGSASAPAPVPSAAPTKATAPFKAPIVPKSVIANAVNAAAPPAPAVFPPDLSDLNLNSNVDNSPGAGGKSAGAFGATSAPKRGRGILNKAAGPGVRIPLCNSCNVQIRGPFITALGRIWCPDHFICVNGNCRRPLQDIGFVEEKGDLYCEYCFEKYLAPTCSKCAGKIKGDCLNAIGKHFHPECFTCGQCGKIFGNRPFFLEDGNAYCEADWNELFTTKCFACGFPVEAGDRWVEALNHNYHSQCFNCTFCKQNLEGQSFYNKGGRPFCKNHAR

As to 6xHis-Zasp52-PK-FLAG (natural protein), the stoichiometry N was 2.

Source of the values: article PMC6910826.
